# Measured values as given in patent US20250270323A1 (NEXTPOINT THERAPEUTICS, published 2025).
# Numbering of substitutions follows the chain as printed.
# B1: Ab-65890 (antibody, human IgG1, V domains shown)
# VH: QVQLVQSGAEVKKPGASVKVSCKASGYTFNSYRMHWVRQAPGQRLEWMGSIPAGTGNTVYSQKFQGRVTITRDTSASTAYMELSSLRSEDTAVYYCARDRGGYYYDSWDDWGQGTLVTVSS
# VL: DIQMTQSPSSLSASVGDRVTITCRASQSISSYLNWYQQKPGKAPKLLIYGASSLQSGVPSRFSGSGSGTDFTLTISSLQPEDFATYYCQQVPFEPPTFGGGTKVEIK
# notes: tested as IgG
# B2: Ab-65886 (antibody, human IgG1, kappa, V domains shown)
# VH: B1 VH with N30E, S31K, R33A, S50F, V59K
# VL: DIQMTQSPSSLSASVGDRVTITCRASQSISSYLNWYQQKPGKAPKLLIYGASSLQSGVPSRFSGSGSGTDFTLTISSLQPEDFATYYCQQVAFTPPTFGGGTKVEIKR
# notes: tested as IgG
# B3: Ab-65885 (antibody, human IgG1, kappa, V domains shown)
# VH: B1 VH with N30D, R33K, S50Y, V59K
# VL: B2 VL
# notes: tested as IgG
# B4: Ab-65887 (antibody, human IgG1, kappa, V domains shown)
# VH: B1 VH with N30E, S31Q, R33A, S50F, V59K, Y104W
# VL: B2 VL with A92V
# notes: tested as IgG
# B5: Ab-65889 (antibody, human IgG1, kappa, V domains shown)
# VH: B1 VH with N30A, R33K, S50D, V59H
# VL: B2 VL with A92P, T94E
# notes: tested as IgG
# B6: Ab-60638 (antibody, human IgG4 S228P, kappa, V domains shown)
# VH: QVQLVQSGAEVKKPGASVKVSCKASGYTFTSYAMHWVRQAPGQRLEWMGWINAGTGNTKYSQKFQGRVTITRDTSASTAYMELSSLRSEDTAVYYCARDLPHRGAFDPWGQGTLVTVSS
# VL: EIVLTQSPGTLSLSPGERATLSCRASQSVSSDYLAWYQQKPGQAPRLLIYGASSRATGIPDRFSGSGSGTDFTLTISRLEPEDFAVYYCQLYGSAPRTFGGGTKVEIKR
# notes: tested as IgG
# B7: Ab-60665 (antibody, human IgG4 S228P, kappa, V domains shown)
# VH: QVQLVQSGAEVKKPGSSVKVSCKASGGTSSNYAISWVRQAPGQGLEWMGGIIPIFGTANYAQKFQGRVTITADESTSTAYMELSSLRSEDTAVYYCARSGTIWHDIWGQGTMVTVSS
# VL: EIVLTQSPATLSLSPGERATLSCRASQSVSSYLAWYQQKPGQAPRLLIYDSSNRATGIPARFSGSGSGTDFTLTISSLEPEDFAVYYCQQVVHWPPTFGGGTKVEIKR
# notes: tested as IgG
# Assays:
# [1] = target: human HHLA2 over-expressed on 300.19 mouse pre-B leukemic cells (human) (UniProt Q9UM44); assay: flow cytometry; TMIGD2-Fc binding to 300.19 HHLA2 cells with 10 ug/mL control IgG, against antigen only
# [2] = target: human HHLA2 over-expressed on 300.19 mouse pre-B leukemic cells (human) (UniProt Q9UM44); assay: flow cytometry; 15 ug/ml antibody on 300.19-human HHLA2 cells, PE-conjugated anti-human secondary antibody
# [3] = target: human HHLA2 over-expressed on 300.19 mouse pre-B leukemic cells (human) (UniProt Q9UM44); assay: flow cytometry; 10 ug/mL control IgG with 4 ug/mL biotinylated human TMIGD2-Fc, added to 300.19 HHLA2 cells
# [4] = target: T1, biotinylated human HHLA2-Fc (human, UniProt Q9UM44 23-344, limits assumed, biotinylated (sites not given)); assay: flow cytometry blocking assay; HHLA2-Fc binding to 300.19 KIR3DL3 cells with 10 ug/mL control IgG, against antigen only
# T1 construct: It may be the same protein as m8 with biotin added; not shown: Fc part
# T1 sequence (looked up): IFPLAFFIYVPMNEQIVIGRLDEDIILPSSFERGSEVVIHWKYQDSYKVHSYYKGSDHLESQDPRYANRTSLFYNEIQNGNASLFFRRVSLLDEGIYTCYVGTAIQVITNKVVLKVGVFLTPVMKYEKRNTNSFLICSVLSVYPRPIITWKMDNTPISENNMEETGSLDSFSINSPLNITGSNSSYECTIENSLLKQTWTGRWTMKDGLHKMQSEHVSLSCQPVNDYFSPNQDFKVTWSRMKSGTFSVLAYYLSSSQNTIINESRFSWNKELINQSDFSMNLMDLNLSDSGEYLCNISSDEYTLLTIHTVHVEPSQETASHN
# [5] = target: T1, biotinylated human HHLA2-Fc; assay: flow cytometry blocking assay; 10 ug/mL control IgG with 4 ug/mL biotinylated human HHLA2-Fc, added to 300.19 KIR3DL3 cells
# [6] = target: T2, recombinant HHLA2-His (UniProt Q9UM44 23-344, limits assumed); assay: SPR (Biacore, Cytiva); antibody captured on CM5 chip, HHLA2-His as analyte; monovalent
# T2 construct: Analyte in the Biacore assay; also called HHLA2-His analyte; not shown: His tag
# T2 sequence (looked up): T1 sequence (looked up)
# Procedure: Monovalent affinity was determined by capturing each antibody on an CM5 chip, followed by various concentrations of the HHLA2-His analyte.
# [7] = target: human HHLA2 over-expressed on 300.19 mouse pre-B leukemic cells (human) (UniProt Q9UM44); assay: flow cytometry on 300.19 cells over-expressing human HHLA2, antibody titration, gMFI (aHu-APC)
# Target sequence in this assay (Q9UM44 23-414): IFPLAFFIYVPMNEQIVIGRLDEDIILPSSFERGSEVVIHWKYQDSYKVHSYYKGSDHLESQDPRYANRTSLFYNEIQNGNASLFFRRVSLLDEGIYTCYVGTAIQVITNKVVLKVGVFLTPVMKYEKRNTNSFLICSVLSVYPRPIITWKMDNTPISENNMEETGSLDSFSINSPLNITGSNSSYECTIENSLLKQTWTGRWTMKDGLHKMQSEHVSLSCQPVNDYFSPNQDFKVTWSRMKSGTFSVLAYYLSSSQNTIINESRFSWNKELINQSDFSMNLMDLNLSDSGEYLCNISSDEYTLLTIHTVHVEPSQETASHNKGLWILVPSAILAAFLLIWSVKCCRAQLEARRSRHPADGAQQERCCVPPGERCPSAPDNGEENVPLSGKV
# [8] = target: T1, biotinylated human HHLA2-Fc; assay: flow cytometry blocking assay, antibody titration: binding of human HHLA2-Fc to 300.19 cells over-expressing human KIR3DL3 (blocked partner), gMFI (anti-SA-APC)
# [9] = target: human HHLA2 over-expressed on 300.19 mouse pre-B leukemic cells (human) (UniProt Q9UM44); assay: flow cytometry, antibody titration: binding of human TMIGD2-Fc (enhanced ligand) to 300.19 cells over-expressing human HHLA2, % TMIGD2-Fc binding normalized to isotype
# [10] = target: T3, recombinant HHLA2-Fc (UniProt Q9UM44 23-344, limits assumed); assay: BLI (Octet, ForteBio); IgG captured on AHC sensor, 100 nM HHLA2-Fc in solution; avid
# T3 construct: Antigen in solution in the Octet assay; also called HHLA2-Fc antigen; not shown: Fc part
# T3 sequence (looked up): T1 sequence (looked up)
# From the text: The avid affinity of the anti-HHLA2 antibodies for recombinant HHLA2-Fc was investigated. The Octet system from ForteBio was used to measure avid affinity of the anti-HHLA2 antibodies for recombinant HHLA2-Fc.
# [11] = target: human HHLA2 over-expressed on 300.19 mouse pre-B leukemic cells (human) (UniProt Q9UM44); assay: flow cytometry; TMIGD2-Fc binding to 300.19 HHLA2 cells with 10 ug/mL IgG, against antigen only; binding is enhanced
# [12] = target: T1, biotinylated human HHLA2-Fc; assay: flow cytometry blocking assay; HHLA2-Fc binding to 300.19 KIR3DL3 cells with 10 ug/mL IgG, against antigen only
# Procedure: The ability of the anti-HHLA2 antibodies to block binding of HHLA2 to KIR3DL3 and enhance binding of HHLA2 to TMIGD2 was investigated. […] Alexa Fluor 633 conjugated streptavidin was added as a secondary detection reagent.
# [13] = target: human HHLA2 over-expressed on 300.19 mouse pre-B leukemic cells (human) (UniProt Q9UM44); assay: flow cytometry; 10 ug/mL IgG with 4 ug/mL biotinylated human TMIGD2-Fc, added to 300.19 HHLA2 cells; streptavidin-Alexa Fluor 633; binding is enhanced
Molecule,300.19-human HHLA2 cells FOB (fold over background) (fold over background) [2],300.19-human HHLA2 cells MFI [2] [MFI],Kd [6] [nM],koff [6] [s⁻¹],kon [6] [M⁻¹ s⁻¹],EC50 (read off the curve) [7] [µg/mL],IC50 (read off the curve) [8] [µg/mL],also measured
Isotype control (antibody),22,3290,–,–,–,–,–,Antigen Binding MFI Ratio (IgG blocked/antigen only) [1]: 1.6; Human TMIGD2-Fc Binding MFI for 300.19 HHLA2 cells [3]: 943 MFI; Antigen Binding MFI Ratio (IgG blocked/antigen only) [4]: 0.9; Human HHLA2-Fc Binding MFI for 300.19 KIR3DL3 cells [5]: 6990 MFI
B1,–,–,0.765,9.28e-05,123000,0.1,~1,–
B2,–,–,11.3,0.00688,609000,0.1,~1,–
B3,–,–,5.82,0.00205,325000,0.1,~1,–
B4,–,–,16.5,0.0148,900000,0.1,~1,–
B5,–,–,0.894,0.000114,128000,0.1,~1,EC50 (read off the curve) [9]: 0.1 µg/mL
B6,394,46900,–,–,–,–,–,Kd [10]: 1.42 nM; koff [10]: 0.000469 s⁻¹; kon [10]: 330000 M⁻¹ s⁻¹; Antigen Binding MFI Ratio (IgG blocked/antigen only) [11]: 4.5; Antigen Binding MFI Ratio (IgG blocked/antigen only) [12]: 0 ratio; Human TMIGD2-Fc Binding MFI for 300.19 HHLA2 cells [13]: 2730 MFI
B7,820,115000,–,–,–,–,–,Kd [10]: 0.971 nM; koff [10]: 0.000189 s⁻¹; kon [10]: 194000 M⁻¹ s⁻¹; Antigen Binding MFI Ratio (IgG blocked/antigen only) [11]: 3.1; Antigen Binding MFI Ratio (IgG blocked/antigen only) [12]: 0 ratio; Human TMIGD2-Fc Binding MFI for 300.19 HHLA2 cells [13]: 1860 MFI
